From patent US10800847

What was measured:
[1] = target: HLA-A*0301 (A3) on single antigen beads (human) (UniProt P04439); experiment: Luminex, iBead MFI against regular bead MFI, 1:8
[2] = target: Albumin on negative control beads (serum albumin, HSA/BSA) (human or bovine); experiment: Luminex, iBead MFI against regular bead MFI, 1:8
[3] = target: HLA-A*0301 (A3) on single antigen beads (human) (UniProt P04439); experiment: Luminex single antigen beads, regular beads (#7), 1:8
[4] = target: Albumin on negative control beads (serum albumin, HSA/BSA) (human or bovine); experiment: as above
[5] = target: HLA-B*4402 (B44) single antigen on Luminex beads (human); experiment: Luminex single antigen, iBeads (#6), IVIg 1:8
[6] = target: HLA-B*4201 (B42) single antigen on Luminex beads (human); experiment: Luminex single antigen, iBeads (#6), IVIg 1:8
[7] = target: HLA-B*4601 (B46) single antigen on Luminex beads (human); experiment: Luminex single antigen, iBeads (#6), IVIg 1:8
[8] = target: HLA-B*2705 (B27) single antigen on Luminex beads (human); experiment: Luminex single antigen, iBeads (#6), IVIg 1:8
[9] = target: HLA-B*4101 (B41) single antigen on Luminex beads (human); experiment: Luminex single antigen, iBeads (#6), IVIg 1:8
[10] = target: HLA-B*3501 (B35) single antigen on Luminex beads (human); experiment: Luminex single antigen, iBeads (#6), IVIg 1:8
[11] = target: HLA-B*4501 (B45) single antigen on Luminex beads (human); experiment: Luminex single antigen, iBeads (#6), IVIg 1:8
[12] = target: HLA-B*3801 (B38) single antigen on Luminex beads (human); experiment: Luminex single antigen, iBeads (#6), IVIg 1:8
[13] = target: HLA-B*4002 (B61) single antigen on Luminex beads (human); experiment: Luminex single antigen, iBeads (#6), IVIg 1:8
[14] = target: HLA-B*3701 (B37) single antigen on Luminex beads (human); experiment: Luminex single antigen, iBeads (#6), IVIg 1:8
[15] = target: HLA-B*4403 (B44) single antigen on Luminex beads (human); experiment: Luminex single antigen, iBeads (#6), IVIg 1:8
[16] = target: HLA-B*4001 (B60) single antigen on Luminex beads (human); experiment: Luminex single antigen, iBeads (#6), IVIg 1:8
[17] = target: HLA-B*2708 (B27) single antigen on Luminex beads (human); experiment: Luminex single antigen, iBeads (#6), IVIg 1:8
[18] = target: HLA-B*3901 (B39) single antigen on Luminex beads (human); experiment: Luminex single antigen, iBeads (#6), IVIg 1:8
[19] = target: HLA-B*4006 (B61) single antigen on Luminex beads (human); experiment: Luminex single antigen, iBeads (#6), IVIg 1:8
[20] = target: HLA-B*4402 (B44) single antigen on Luminex beads (human); experiment: Luminex single antigen, iBead vs regular bead, IVIg 1:8
[21] = target: HLA-B*4201 (B42) single antigen on Luminex beads (human); experiment: as above
[22] = target: HLA-B*4601 (B46) single antigen on Luminex beads (human); experiment: as above
[23] = target: HLA-B*2705 (B27) single antigen on Luminex beads (human); experiment: as above
[24] = target: HLA-B*4101 (B41) single antigen on Luminex beads (human); experiment: as above
[25] = target: HLA-B*3501 (B35) single antigen on Luminex beads (human); experiment: as above
[26] = target: HLA-B*4501 (B45) single antigen on Luminex beads (human); experiment: as above
[27] = target: HLA-B*3801 (B38) single antigen on Luminex beads (human); experiment: as above
[28] = target: HLA-B*4002 (B61) single antigen on Luminex beads (human); experiment: as above
[29] = target: HLA-B*4701 (B47) single antigen on Luminex beads (human); experiment: as above
[30] = target: HLA-B*3701 (B37) single antigen on Luminex beads (human); experiment: as above
[31] = target: HLA-B*4403 (B44) single antigen on Luminex beads (human); experiment: as above
[32] = target: HLA-B*4001 (B60) single antigen on Luminex beads (human); experiment: as above
[33] = target: HLA-B*2708 (B27) single antigen on Luminex beads (human); experiment: as above
[34] = target: HLA-B*3901 (B39) single antigen on Luminex beads (human); experiment: as above
[35] = target: HLA-B*4006 (B61) single antigen on Luminex beads (human); experiment: as above
[36] = target: HLA-B*4402 (B44) single antigen on Luminex beads (human); experiment: Luminex single antigen, regular beads (#7), IVIg 1:8
[37] = target: HLA-B*4601 (B46) single antigen on Luminex beads (human); experiment: as above
[38] = target: HLA-B*4101 (B41) single antigen on Luminex beads (human); experiment: as above
[39] = target: HLA-B*3501 (B35) single antigen on Luminex beads (human); experiment: as above
[40] = target: HLA-B*4501 (B45) single antigen on Luminex beads (human); experiment: as above
[41] = target: HLA-B*3801 (B38) single antigen on Luminex beads (human); experiment: as above
[42] = target: HLA-B*4002 (B61) single antigen on Luminex beads (human); experiment: as above
[43] = target: HLA-B*4701 (B47) single antigen on Luminex beads (human); experiment: as above
[44] = target: HLA-B*3701 (B37) single antigen on Luminex beads (human); experiment: as above
[45] = target: HLA-B*4403 (B44) single antigen on Luminex beads (human); experiment: as above
[46] = target: HLA-B*2708 (B27) single antigen on Luminex beads (human); experiment: as above
[47] = target: HLA-B*3901 (B39) single antigen on Luminex beads (human); experiment: as above
[48] = target: HLA-B*4006 (B61) single antigen on Luminex beads (human); experiment: as above
[49] = target: HLA-A*0301 (A3) on single antigen beads (human) (UniProt P04439); experiment: Luminex single antigen beads, iBeads (#6), 1:8
[50] = target: Albumin on negative control beads (serum albumin, HSA/BSA) (human or bovine); experiment: Luminex single antigen beads, iBeads (#6), 1:8
HLA-B*4402 (B44) (human) = experiment: Luminex single-antigen beads (iBeads), culture supernatant
HLA-B*4101 (B41) (human) = experiment: as above
HLA-B*4801 (B48) (human) = experiment: as above
HLA-B*3701 (B37) (human) = experiment: as above
HLA-B*4501 (B45) (human) = experiment: as above
HLA-B*4901 (B49) (human) = experiment: as above
HLA-B*4601 (B46) (human) = experiment: as above
HLA-B*4701 (B47) (human) = experiment: as above
HLA-B*3901 (B39) (human) = experiment: as above
HLA-B*3801 (B38) (human) = experiment: as above
HLA-B*5101 (B51) (human) = experiment: as above
HLA-B*4001 (B60) (human) = experiment: as above
HLA-B*4002 (B61) (human) = experiment: as above
HLA-B*4006 (B61) (human) = experiment: as above
HLA-B*4403 (B44) (human) = experiment: as above
HLA-B*3501 (B35) (human) = experiment: as above
HLA-B*5001 (B50) (human) = experiment: as above
HLA-B*4201 (B42) (human) = experiment: as above
[51] = target: HLA-A*1101 (A11) single antigen bead (human); experiment: Luminex single antigen bead assay (IBEADS), culture supernatant
[52] = target: HLA-A*0301 (A3) single antigen bead (human); experiment: as above
[53] = target: HLA-A*2501 (A25) single antigen bead (human); experiment: as above
[54] = target: HLA-A*0203 (A2) single antigen bead (human); experiment: as above
[55] = target: HLA-A*0206 (A2) single antigen bead (human); experiment: as above
[56] = target: HLA-A*3002 (A30) single antigen bead (human); experiment: as above
[57] = target: HLA-A*2601 (A26) single antigen bead (human); experiment: as above
[58] = target: HLA-A*1102 (A11) single antigen bead (human); experiment: as above
[59] = target: HLA-A*2901 (A29) single antigen bead (human); experiment: as above
[60] = target: HLA-A*0201 (A2) single antigen bead (human); experiment: as above
[61] = target: HLA-A*2902 (A29) single antigen bead (human); experiment: as above
[62] = target: HLA-A*2403 (A24) single antigen bead (human); experiment: as above
[63] = target: HLA-A*3001 (A30) single antigen bead (human); experiment: as above
[64] = target: Negative control beads coated with serum albumin (HSA/BSA) (human or bovine); experiment: as above
[65] = target: HLA-A*0101 (A1) single antigen bead (human); experiment: as above
[66] = target: HLA-A*2402 (A24) single antigen bead (human); experiment: as above
[67] = target: HLA-A*2301 (A23) single antigen bead (human); experiment: as above

Gamunex-C Lot NKLK1 (IVIg) (antibody)
Difference % (iBead against regular bead) [1]: -151% | Difference % (iBead against regular bead) [2]: -24% | MFI [3]: 410 MFI | MFI [4]: 10300 MFI | MFI [5]: 786 MFI | MFI [6]: 0 MFI | MFI [7]: 851 MFI | MFI [8]: 0 MFI | MFI [9]: 0 MFI | MFI [10]: 577 MFI | MFI [11]: 399 MFI | MFI [12]: 0 MFI | MFI [13]: 0 MFI | MFI [14]: 612 MFI | MFI [15]: 836 MFI | MFI [16]: 93 MFI | MFI [17]: 0 MFI | MFI [18]: 0 MFI | MFI [19]: 421 MFI | Difference % (iBead against regular bead MFI) [20]: -85% | Difference % (iBead against regular bead MFI) [21]: -100% | Difference % (iBead against regular bead MFI) [22]: -65% | Difference % (iBead against regular bead MFI) [23]: -100% | Difference % (iBead against regular bead MFI) [24]: -100% | Difference % (iBead against regular bead MFI) [25]: -61% | Difference % (iBead against regular bead MFI) [26]: -29% | Difference % (iBead against regular bead MFI) [27]: -100% | Difference % (iBead against regular bead MFI) [28]: 0% | Difference % (iBead against regular bead MFI) [29]: -39% | Difference % (iBead against regular bead MFI) [30]: -87% | Difference % (iBead against regular bead MFI) [31]: -31% | Difference % (iBead against regular bead MFI) [32]: -93% | Difference % (iBead against regular bead MFI) [33]: 0% | Difference % (iBead against regular bead MFI) [34]: 0% | Difference % (iBead against regular bead MFI) [35]: -90% | MFI [36]: 5310 MFI | MFI [37]: 2450 MFI | MFI [38]: 605 MFI | MFI [39]: 1480 MFI | MFI [40]: 562 MFI | MFI [41]: 1260 MFI | MFI [42]: 0 MFI | MFI [43]: 2030 MFI | MFI [44]: 4790 MFI | MFI [45]: 1210 MFI | MFI [46]: 0 MFI | MFI [47]: 0 MFI | MFI [48]: 4340 MFI | MFI [49]: -211 MFI | MFI [50]: 7800 MFI

TFL Anti-HLA-E Mab PTG-006 (antibody)
MFI (HLA-B*4402 (B44) (human)): 32 MFI | MFI (HLA-B*4101 (B41) (human)): 89 MFI | MFI (HLA-B*4801 (B48) (human)): 21 MFI | MFI (HLA-B*3701 (B37) (human)): 43 MFI | MFI (HLA-B*4501 (B45) (human)): 18 MFI | MFI (HLA-B*4901 (B49) (human)): 71 MFI | MFI (HLA-B*4601 (B46) (human)): 23 MFI | MFI (HLA-B*4701 (B47) (human)): 38 MFI | MFI (HLA-B*3901 (B39) (human)): 21 MFI | MFI (HLA-B*3801 (B38) (human)): 24 MFI | MFI (HLA-B*5101 (B51) (human)): 45 MFI | MFI (HLA-B*4001 (B60) (human)): 28 MFI | MFI (HLA-B*4002 (B61) (human)): 33 MFI | MFI (HLA-B*4006 (B61) (human)): 41 MFI | MFI (HLA-B*4403 (B44) (human)): 18 MFI | MFI (HLA-B*3501 (B35) (human)): 60 MFI | MFI (HLA-B*5001 (B50) (human)): 67 MFI | MFI (HLA-B*4201 (B42) (human)): 32 MFI | MFI [51]: 51 MFI | MFI [52]: 36 MFI | MFI [53]: 24 MFI | MFI [54]: 31 MFI | MFI [55]: 27 MFI | MFI [56]: 69 MFI | MFI [57]: 57 MFI | MFI [58]: 60 MFI | MFI [59]: 115 MFI | MFI [60]: 31 MFI | MFI [61]: 23 MFI | MFI [62]: 53 MFI | MFI [63]: 45 MFI | MFI [64]: 6 MFI | MFI [65]: 28 MFI | MFI [66]: 42 MFI | MFI [67]: 36 MFI
